Data as given in the NTF2 design screens of Basanta et al. (2020).

Assay: protease stability score; higher = more stable; yeast display proteolysis, trypsin and chymotrypsin;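 also: log10 excess protease needed over predicted unfolded state with 0 meaning unfolded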

Q: With “DEDDANQVERDLRENDWDQLVRNFDEDARIQIGDYTIHGREDYKRWLEEVEKQVDKVEIKQVDIHGNNIVVDYRQQVNGQHVRAIMVITMDNGKIKEMHVDVRSEDAKRAYERIFR” as the sequence, how does the protease stability score read?
A: 0.525

Q: With “DEDDANRVAQEILRALIEGDEKKVADLVDEDARISIGDHKFRGREQIREAVREFTEEVDHVKLESITADNGHAEATAILDINGKNQRVTFHVEVHNGRAKEVSMTSG” as the sequence, how does the protease stability score read?
A: 1.05

Q: With “DEDDARKVRKLAKTNDWDELVHRFRDDVRFKVGNQRYSGRENAQTVAQELRKKVDHIRITSLHSTPGHVVLHMTMVVNGRKITVVIFIRMDNGRAVSFSLRVRDEEVKKHITQAFS” as the sequence, how does the protease stability score read?
A: 0.141

Q: For “DEDDERQMEEVVETGDPDRMAENADPNVRVDVGDHEVHGRERAQKMWQQEKKQVDHLEVKEVHTENGRINADVVVVVNGRSLQVTVVASMHNGKIEYYSIQFTSEKQKKQWHDANG”, which protease stability score is on record?
A: -0.048

Q: For “DEDDKQEFAKSYNEVWKTGNEENAKRLFDENARMRVGDKEFHGHESIAHFLAEQVKRIDHIEFKQVDVQGEDMVFVFHFTVDGRKVHMTVKLRIHNGRIKDATINPQDIKKMEK”, which protease stability score is on record?
A: 0.603

Q: Which protease stability score does the source give for “DEDDKQRHAEKYAKLWQEGNEDELQKQMDPNAKVVVGEKRLKGREQIKKWLEEWRKHADEVQVISVSVEGERLVIRFRANINGKTYHDTQTMIYDNGEIQDVRFDPKWLHDLKR” here?
A: 0.625

Q: With “DEDDLERKDEEFQRLMKTGNFEELAQQADKDVRVQIGDKQLHGRRQIKKYQEEMQRKADHFDVKRVDIQGDTVDAVIENRHNGHHQVVRIQVNMHNGTIKEVTIHSS” as the sequence, how does the protease stability score read?
A: -0.02

Q: Which protease stability score does the source give for “DEDDLETLLKKIIDAMRNGDPKQMMRLVDENAKLVVGDKTVHGREEVSKWMKELRRQVDDNDYKDFHVQGDKARIDHFVNINGTNTERVIDIEVHNGRVKRLVYHEK” here?
A: 0.159

Q: For “DEDDLQRKVERINSALQTNDEDEFVRQLDEDAKISVGDKTVHGQEKAREWVQDLRRTVDHIRVDHVKVHNGRAHVTMKAVVNGKNVEITMQMTLHNGKVKEMRIDPEDVEKLEG”, which protease stability score is on record?
A: 0.807

Q: For “DEDDLRHVEKVLRENDEDTFAEMADEDVSADIGDKTLTGREEVKKMLQKLHKQADHVEIKSVTNRGDNVKVDMVMNYNGRNLRFSRSAEFTNGRIKHVSIRVTSEEDQDVLQRLLD”, which protease stability score is on record?
A: 0.811

Q: With “DEDDLRRAQKDLQQNDFHKIARDADENVRVRIGDTTYHGRETLISFLKEMQDRADHVSIKHISVEGDKITADFEMQVDGKTDTFDLFIVVHNGRYQHVHFEVRSEDFSKFMREIES” as the sequence, how does the protease stability score read?
A: 1.02

Q: With “DEDDLRRIIKEFQKALKTGDTDEIRRQIDPNAHARYGDKEVHGREQLLSRLDELMNNVDHMQIDDLTFRGDKATVDFVMNHNGHERRHILHMVVHNGTIKSAHLDDS” as the sequence, how does the protease stability score read?
A: 1.01

Q: Which protease stability score does the source give for “DEDDLRRLAEDFVRVLKTGDEDRLSELFDPNAKVSVGDHEYHGSENIVRALVEFARRVDELEVNSITIENGRVKIDAFATVNGKRVSVIIEIQYHNGRAKYVEFKYTSEEENRRFKN” here?
A: 0.466

Q: For “DEDDLRRRANEVAEVLHDNDEESMKSLVDPNADIEIGDKRLHGRDDMEKWMQERKRRVDHLTLHSFNVHNGRVDIDARVEVNGQQERYRMVVEFHNGVAKHINFTST”, which protease stability score is on record?
A: 0.569

Q: With “DEDDLVRQMVDRAEEAAQTGDEKKFANLFDPNARFRYGDKDVHGREEWEKRLDEERKRADRLHIKFDSVRVHGDKVDLHFTWRVVVNGESSERVVIIHAVKQGDRIVAKYVREG” as the sequence, how does the protease stability score read?
A: 0.611

Q: For “DEDDMRKWEELMRAFETGDEKKATELVDPNATFKVGDKTYHGREHFIKDLFTKVKEIHIQMRIRDIQQSGDFAVVHLVKSNHNNGKPNSDVAVVLVRMDNGKLKYVQETKDQ”, which protease stability score is on record?
A: 0.587

Q: With “DEDDMRRLEQLFRDIQTGNPERVRTLVDKNAELRVGDKRIKGREDVHRSVKKNRDEIRYSIDRLSADVKGDQVEMTVTAQKEHNGEPRSFKFTMTAKFRNGKLQHLDVHEEK” as the sequence, how does the protease stability score read?
A: -0.297

Q: Which protease stability score does the source give for “DEDDNKIAKEWYKAIQRGDPDRVKQLVDPNVKIRIGDKDIRGRENFATEVERMRDEIEVVFKVKDMKDQGDKANVEYEYQTQSNGRPRTKSQTVNVSMHNGHVKHVNVRDDQ” here?
A: -0.301

Q: With “DEDDNRKMHKLMETGDFEKIAHHADPNAHAKYGDKTVTGKEELKSVFTKFNRAVDHVQVQDVRIRGDKVTLDAEVNVNGQTVQVTVSARAHNGQIKHFKIQARDEQIQRDIKDALE” as the sequence, how does the protease stability score read?
A: 0.845

Q: For “DEDDQERKLRKIAKNITKGDKTSLLKMVDKDAKASVGDKTVEGDNQLKRVMEERTRRIDHLDLKDVKVTGNTLVVHYVIHHNGKNKHQVAFVVLDNGRIKSMSFHDG”, which protease stability score is on record?
A: -0.08

Q: Which protease stability score does the source give for “DEDDQKLITEFLKALERGDPDRLLENADPNASARVGDKDVHGMHNAATDWVRERNSMDVTYDSVEIHVHNGRATIHLDAQFDFNGKPWRDTMTVEIVIRNGKIKDIIFRFDEQQLRDITK” here?
A: 0.714

Q: Which protease stability score does the source give for “DEDDQKNFSQMLNALDTGDEKRVVELADPNAKVEYGDKTYSGMEKYAHDRAKQRKEWRYHQTIDKVNVKNGRVEIHMKANFKINGQPRSMRFSVTVEAHNGKLKNLDFRFSEEDRKKLEG” here?
A: -0.024

Q: Which protease stability score does the source give for “DEDDQLRKLLEEIVDALDRGNESELRNLMDKDVRVDVGDKTITGRENAAEFLIRLANEADEIDINITDLKVDNGNISLRFQLHLHHNGRNVTRQVTIVIDRKGDELKVKYIRMS” here?
A: 0.031

Q: Which protease stability score does the source give for “DEDDQRRKAETLVRQISTGNPDDLKKMVDPNVKVKVGDKEYHGREEMAKDIKHIEDAVDHLEVKSVDAHNGRIDIVIVMHINGTRVHMRVEFQLNNGKVKSAERRYTDQDQKNTFER” here?
A: -0.39

Q: For “DEDDQVRKILETQDRAMRTGDEDTYVNQADKDVRVKVGDKKLRGREEWKKEVTRIIERVDHFDVHIDHIDHQGDKIVIRQVIVLEHDGRRDSKTYNMTARNKNGRVKWKEVTEK”, which protease stability score is on record?
A: -0.205
